Source: patent US20190241648A1 (STATEN BIOTECHNOLOGY B V, published 2019)

Tests used:
[1] = target: T1, human ApoC3 (huApoC3), native protein purified from human serum (human, UniProt P02656 21-99); test: cell-based or functional assay
[2] = target: T1, human ApoC3 (huApoC3), native protein …; test: SPR Biacore, huApoC3 on chip, scFv-Fc as analyte
Description: This example describes characterization of anti-ApoC3 antibodies regarding their affinity to ApoC3 under neutral conditions using an SPR-based assay using a Biacore 3000 instrument (Biacore AB). Native huApoC3 protein was immobilized on a CM5 chip. The immobilization was performed in accordance with the method provided by Biacore using the NHS/EDC kit (Biacore AB): after activation of the chip, a solution of 60 μg/ml of human ApoC3 in 10 mM acetate buffer with pH of 4.5 was prepared and injected until the surface density reached approximately 1000 RU. Capturing of the human ApoC3 on the streptavidin coated chip (SA) was performed at pH 7.4 in accordance with a method provided by Biacore via injection of 20 μl 10 μg/ml biotinylated human ApoC3 thereby reaching the surface density of approximately 500 RU. […] After the dissociation, the flow cell surfaces were regenerated by injecting 10 μl of 10 mM […]/1 M NaCl and 10 μl of 10 mM glycine at pH1.5. The resulting sensorgrams were analyzed using the BIAevaluation 4.1 software using Langmuir 1:1 binding model to derive binding kinetics. Data was zero adjusted and the reference cell sensorgrams were subtracted.
A number of scFv-Fc antibodies were examined in this assay. The association rate (ka), dissociation rate (kd), analyte binding capacity (Rmax), equilibrium association constant (KA) and equilibrium dissociation constant (KD) of these antibodies are shown in Table 5.

T1 sequence (P02656 21-99): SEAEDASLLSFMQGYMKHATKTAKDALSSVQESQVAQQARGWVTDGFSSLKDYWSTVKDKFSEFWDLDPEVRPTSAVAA

B1: 5A11 scFv-Fc (Fc fusion)
VH: QVQVQESGPGLVKPSQTLSLTCTVSGVSITTRYYAWSWIRQPPGKGLEWMGVIAYDGSTYYSPSLKSRTSISRDTSKNQFSLQLTSVTPEDTAVYYCARVRLIEAPYEYDYWGQGTQVTVSS
VL: QAVVTQEPSLSVSPGGTVTLTCGLSSGSVTTRSYPGWFQQTPGQAPRSLIHSTSSRHSGIPTRFSGSISGNKAALTITGAQPEDEADYYCALDIGSYIVFGGGTHLTVL
notes: scFv-Fc format
[1]
  attenuation of the ability of ApoC3 to inhibit VLDL uptake by HepG2 cells: ~55%
[2]
  Ka: 2.15e+09 M⁻¹
  Kd: 0.465 nM
  koff: 0.000668 s⁻¹
  kon: 1.44e+06 M⁻¹ s⁻¹

B2: 5A4 scFv-Fc (Fc fusion)
VH: QLQLVESGGGLVQPGGSLRLSCVASGFAFSHYTMYWVRQAPVRGLERVSAISGGGDRTIYTDSVKGRFTISRDNAANALYLQMNSLQPEDTAVYYCVAQGYEYWGQGTRVTVSS
VL: ATMLTQSPGSLSVVPGESASISCKAIQSLVHTDGKTYLYWFLQKPGQSPQRLIYQVSNRGSGVPDRFTGSGSGTDFTLKISGVKAEDAGVYYCAQGTYSSKTFGQGTKLEIK
notes: scFv-Fc format
[1]
  attenuation of the ability of ApoC3 to inhibit VLDL uptake by HepG2 cells: ~100%
[2]
  Ka: 3.02e+09 M⁻¹
  Kd: 0.331 nM
  koff: 0.000351 s⁻¹
  kon: 1.06e+06 M⁻¹ s⁻¹

B3: 5E5 scFv-Fc (Fc fusion)
VH: QLQLVESGGGLVQPGGSLRLSCAASGFTFGTYSMRWVRQVPRKALEWVSSISTDGGGTAYRDSVKGRFTISRDNAKNTLYLQMNNLKPEDTAIYYCVIAGYSDWGQGTQVTVSS
VL: ATMLTQSPGSLSVVPGESASISCKTSQGLVHSDGKTYFYWFLQKPGQSPQQLIYQVSNRASGVPDRFTGSGSGTDFTLKISGVKAEDAGVYYCAQGTYYPHTFGSGTRLEIK
notes: scFv-Fc format
[1]
  attenuation of the ability of ApoC3 to inhibit VLDL uptake by HepG2 cells: ~100%
[2]
  Ka: 5.94e+08 M⁻¹
  Kd: 1.68 nM
  koff: 0.000437 s⁻¹
  kon: 260000 M⁻¹ s⁻¹

B4: 10B6 scFv-Fc (Fc fusion)
VH: EVQLVESGGGLVQPGGSLRLSCAASGFTFSSYAMRWVRQAPGKGLEWISSINIDGGSTRYTDSVQGRFTVSRDNAKNTLYLQMNNLKPEDTGIYYCTIQGYIYWGQGTQVTVSS
VL: ATMLTQSPGSLSIVPGESASISCKASQSLVHSNGVIYFYWLLQKPGQSPQRLIYQVSNRDSGVPDRFTGSGSGTDFTLKISGVKAEDAGVYYCAQGTYYPHSFGSGTRLQIK
notes: scFv-Fc format
[1]
  attenuation of the ability of ApoC3 to inhibit VLDL uptake by HepG2 cells: ~70%
[2]
  Ka: 2.58e+09 M⁻¹
  Kd: 0.388 nM
  koff: 6.64e-05 s⁻¹
  kon: 171000 M⁻¹ s⁻¹

B5: 8A4 scFv-Fc (Fc fusion)
VH: QVQLVESGGGLVQPGGSLKVSCTASGFTFNNYAMRWVRQAEGKGLEWVSSIDSGGDRTKYGDSVKGRFSISRDNAKNTVYLQMDALKPEDTGVYYCVSQGYIFWGQGAQVTVSS
VL: ATMLTQSPGSLSVVPGESASISCKASQSLVHSDGKTYLYWLLQKPGQRPQLLIYQVSNHESGVPDRFTGSGSGTDYTLKISGVKAEDAGVYYCAQATYYPLTFGQGTKVELK
notes: scFv-Fc format
[1]
  attenuation of the ability of ApoC3 to inhibit VLDL uptake by HepG2 cells: ~40%
[2]
  Ka: 4.27e+09 M⁻¹
  Kd: 0.234 nM
  koff: 7.02e-05 s⁻¹
  kon: 300000 M⁻¹ s⁻¹

B6: 8F4 scFv-Fc (Fc fusion)
VH: QLQLVESGGGLVQPGGSLRLSCAASGFAFSSYSMYWVRQAPGKGLERVAAIKTDGGSTNYADSVKGRFTVSRDNAKNTLYLQMNSLKSEDTAVYYCVIQGYGTWGQGTQVTVSS
VL: DLVLTQIPGSLSVVPGESASISCKASQSLVHSDGKTYLYWLLQKPGQSPQRLIYQVSNRGSGVPDRFTGSGSGTDFTLKISGVEAEDAGVYYCAQATYYGHSFGSGTRLEIK
notes: scFv-Fc format
[1]
  attenuation of the ability of ApoC3 to inhibit VLDL uptake by HepG2 cells: ~75%
[2]
  Ka: 1.72e+09 M⁻¹
  Kd: 0.581 nM
  koff: 9.44e-05 s⁻¹
  kon: 163000 M⁻¹ s⁻¹

B7: 8H4 scFv-Fc (Fc fusion)
VH: ELQLVESGGGLVQPGRSLRLSCAASGFTFSSYSMRWVRQTPGKGLEWVTSINSDGGSTKYSDSVKGRFTISRDNAKNTLYLQMNNVKPEDTAIYYCAIQGYTDWGQGTQVTVSS
VL: DVVLTQTPGSLSVVPGESASISCKVSQSLVHSDGKTYLYWLLQKPGQSPQRLIYQVSNRDSGVPDRFTGSGSGTDFTLKISGVKAEDAGVYYCAQGTYNPYTFGSGTRLEIK
notes: scFv-Fc format
[1]
  attenuation of the ability of ApoC3 to inhibit VLDL uptake by HepG2 cells: ~70%
[2]
  Ka: 2.52e+09 M⁻¹
  Kd: 0.397 nM
  koff: 7.44e-05 s⁻¹
  kon: 187000 M⁻¹ s⁻¹
